{"source": "IntAct's records for PubMed 22510990", "parents": {"B1": {"name": "Protein Niban 1 (Homo sapiens), Q9BZQ8 (parent)", "chain": "MGGSASSQLDEGKCAYIRGKTEAAIKNFSPYYSRQYSVAFCNHVRTEVEQQRDLTSQFLKTKPPLAPGTILYEAELSQFSEDIKKWKERYVVVKNDYAVESYENKEAYQRGAAPKCRILPAGGKVLTSEDEYNLLSDRHFPDPLASSEKENTQPFVVLPKEFPVYLWQPFFRHGYFCFHEAADQKRFSALLSDCVRHLNHDYMKQMTFEAQAFLEAVQFFRQEKGHYGSWEMITGDEIQILSNLVMEELLPTLQTDLLPKMKGKKNDRKRTWLGLLEEAYTLVQHQVSEGLSALKEECRALTKGLEGTIRSDMDQIVNSKNYLIGKIKAMVAQPAEKSCLESVQPFLASILEELMGPVSSGFSEVRVLFEKEVNEVSQNFQTTKDSVQLKEHLDRLMNLPLHSVKMEPCYTKVNLLHERLQDLKSRFRFPHIDLVVQRTQNYMQELMENAVFTFEQLLSPHLQGEASKTAVAIEKVKLRVLKQYDYDSSTIRKKIFQEALVQITLPTVQKALASTCKPELQKYEQFIFADHTNMIHVENVYEEILHQILLDETLKVIKEAAILKKHNLFEDNMALPSESVSSLTDLKPPTGSNQASPARRASAILPGVLGSETLSNEVFQESEEEKQPEVPSSLAKGESLSLPGPSPPPDGTEQVIISRVDDPVVNPVATEDTAGLPGTCSSELEFGGTLEDEEPAQEEPEPITASGSLKALRKLLTASVEVPVDSAPVMEEDTNGESHVPQENEEEEEKEPSQAAAIHPDNCEESEVSEREAQPPCPEAHGEELGGFPEVGSPASPPASGGLTEEPLGPMEGELPGEACTLTAHEGRGGKCTEEGDASQQEGCTLGSDPICLSESQVSEEQEEMGGQSSAAQATASVNAEEIKVARIHECQWVVEDAPNPDVLLSHKDDVKEGEGGQESFPELPSEE"}}, "data": [{"variants_of": "B1", "conditions": "with npm_human NPM1, P06748", "values": [{"variant": "S602D", "effect of a mutation on the interaction": "increasing interaction"}]}, {"variants_of": "B1", "conditions": "with npm_human NPM1, P06748", "remark": "another data set of the same source", "values": [{"variant": "S602A", "effect of a mutation on the interaction": "decreasing interaction"}]}]}
